Details in all cases: other: pH 7.5, 1 mM S3P
The subject of one data set is C=C(OP(=O)(O)O)C(=O)O. Briefly: purified protein, by the assay type.
Substrate in data set [1]: C=C(OP(=O)(O)O)C(=O)O
Briefly: In vitro kinetic assay (inorganic phosphate production, malachite green). It is filed as biochemical, Brassica napus. The text has this:
(§1) The following Class I enzymes: DGT-1 from Glycine max, DGT-3 from Brassica napus (GENBANK ACC NO: P17688), and DGT-7 from Triticum aestivum (GENBANK ACC NO: EU977181) were used as a comparison. The Class I EPSP synthase enzymes and mutant variants thereof were synthesized and evaluated. A mutation introduced into the plant EPSP synthase enzymes consisted of the Glycine to Alanine mutation made within the EPSP synthase enzyme at a similar location as that of the G96A mutation from the E. coli version of the enzyme. In addition, Threonine to Isoleucine and Proline to Serine mutations were introduced within these Class I EPSP synthase enzymes at analogous positions as that of amino acid 97 (T to I) and amino acid 101 (P to S) in the EPSP synthase of E. coli as described in Funke et al., (2009).
(§2) The location of the amino acid residue which was mutated from glycine to alanine is indicated by the first asterisk. The location of the amino acid residue which was mutated from threonine to isoleucine is indicated by the second asterisk. The location of the third amino acid residue which was mutated from proline to serine is indicated by the third asterisk. These mutations were introduced into different versions of DGT-1, DGT-3, and DGT-7. The different versions of the genes which contain the mutations are described in more detail below.
(§3) Additional constructs containing the dgt-1, dgt-3 and dgt-7 were synthesized. These constructs were used for in vitro testing of the dgt-1 v5, dgt-1 v6, dgt-1 v7, dgt-1 v8, dgt-3 v6, dgt-3 v7, dgt-3 v8, dgt-7 v5, dgt-7 v6, dgt-7 v7, and dgt-7 v8 gene sequences were outsourced to GeneArt for synthesis and cloning. The synthesized genes were cloned into the pET28 expression vector. The resulting constructions were labeled as pDAB102028 containing dgt-1 v5, pDAB102029 containing dgt-1 v6, pDAB102032 containing dgt-1 v7, pDAB102034 containing dgt-1 v8, pDAB100429 containing dgt-3 v6, pDAB100442 containing dgt-3 v7, pDAB100430 containing dgt-3 v8, pDAB102036 containing dgt-7 v5, pDAB102038 containing dgt-7 v6, pDAB102040 containing dgt-7 v7, and pDAB102042 containing dgt-7 v8.
(§4) Recombinant DGT proteins were overexpressed in Rosetta2™ (DE3) cells (Novagen, Madison, Wis.) from the constructs described above. A single colony was used to inoculate 50 mL starter cultures of LB containing chloramphenicol (25 μg/mL) and kanamycin (50 μg/mL) which were cultivated overnight at 37° C. The overnight cultures were used to inoculate 1 L of LB containing chloramphenicol (25 μg/mL) and kanamycin (50 μg/mL). The cultures were grown at 37° C. to an O.D.600=0.6 then placed in an ice water bath for 10 minutes. Expression of the target proteins was achieved by addition of IPTG to a final concentration of 500 μM. Induction was allowed to proceed overnight at 20° C. followed by harvesting via centrifugation at 8,000 rpm for 20 minutes. The cell pellets were stored at −80° C. until required for purification. All purification steps were carried out at 4° C.
(§5) Cell pellets from 1 L cultures were resuspended in 20-30 mL Buffer A (50 mM HEPES pH 7.5, 150 mM KCl, 2 mM DTT, 1 mM EDTA, 20 mM imidazole, and 5% glycerol). COMPLETE™ protease inhibitor cocktail (1 tablet/50 mL, Roche, Indianapolis, Ind.) and lysozyme (1 mg/mL, Sigma-Aldrich, St. Louis, Mo.) were then added and the suspension was stirred for 20 minutes. Cell lysis was performed using a Branson Sonifier 250 (3×60 second bursts) followed by removal of the cell debris by centrifugation at 16,000 rpm for 45 minutes. […]

Substrate in data set [2]: C=C(OP(=O)(O)O)C(=O)O
The description is as above. It is filed as biochemical, Glycine max.
Excerpt: as §1, §2, §3, §4, §5

Broadly, the Km is the substrate concentration at which the rate is half of its maximum. For the molecule “Mariprofundus ferrooxydans EPSP synthase DGT-14 v1, native wild type (GENBANK ZP_01452683; SEQ ID NO:17) (Mariprofundus ferrooxydans PV-1)”, the Km in the data set with C=C(OP(=O)(O)O)C(=O)O stood at 208.6 µM.
Usually kcat/Km stands for the turnover number divided by the Michaelis constant. For “bacterial EPSP synthase DGT-18 (GENBANK NP_928909.1) variant DGT-18 v6 (G→A at residue 96), SEQ ID NO:9 (Photorhabdus laumondii subsp. laumondii TTO1; G96A)”, in the data set on C=C(OP(=O)(O)O)C(=O)O, the Km worked out at 375.9 µM and the kcat/Km worked out at 40000 M⁻¹ s⁻¹.
For “bacterial EPSP synthase DGT-11 v6, native (GENBANK YP_989551.1), SEQ ID NO:5 (Bartonella bacilliformis INS)”, in the data set on C=C(OP(=O)(O)O)C(=O)O, the Km was 1576.6 µM and the kcat/Km was determined as 50 M⁻¹ s⁻¹.
As for “bacterial EPSP synthase DGT-30 (GENBANK ZP_02156189.1) variant DGT-30 v6 (G→A at residue 96), SEQ ID NO:13 (Shewanella benthica KT99; G96A)”, in the data set on C=C(OP(=O)(O)O)C(=O)O, the Michaelis-Menten constant (Km) was found to be 414.9 µM and the kcat/Km stood at 30000 M⁻¹ s⁻¹.
Turning to “bacterial EPSP synthase DGT-29 (GENBANK YP_322772.1) variant DGT-29 v6 (G→A at residue 96), SEQ ID NO:11 (Trichormus variabilis ATCC 29413; G96A)”, in the data set with C=C(OP(=O)(O)O)C(=O)O, the Michaelis-Menten constant (Km) worked out at 1502.2 µM and the kcat/Km was determined as 4000 M⁻¹ s⁻¹.

B1: Brassica napus (canola) EPSP synthase DGT-3 (GENBANK P17688) variant DGT-3 v6 (G→A) (Brassica napus; G173A) (protein)
chain: KASEIVLQPIREISGLIKLPGSKSLSNRILLLAALSEGTTVVDNLLNSDDINYMLDALKKLGLNVERDSVNNRAVVEGCGGIFPASLDSKSDIELYLGNAATAMRPLTAAVTAAGGNASYVLDGVPRMRERPIGDLVVGLKQLGADVECTLGTNCPPVRVNANGGLPGGKVKLSGSISSQYLTALLMAAPLALGDVEIEIIDKLISVPYVEMTLKLMERFGVSAEHSDSWDRFFVKGGQKYKSPGNAYVEGDASSASYFLAGAAITGETVTVEGCGTTSLQGDVKFAEVLEKMGCKVSWTENSVTVTGPSRDAFGMRHLRAVDVNMNKMPDVAMTLAVVALFADGPTTIRDVASWRVKETERMIAICTELRKLGATVEEGSDYCVITPPAKVKPAEIDTYDDHRMAMAFSLAACADVPVTIKDPGCTRKTFPDYFQVLESITKH
notes: made in house; host or cells: E. coli Rosetta2 (DE3)
For B1, in data set [1], the Km stood at 1073.4 µM and the kcat/Km worked out at 13900 M⁻¹ s⁻¹.

B2: Brassica napus (canola) EPSP synthase DGT-3 (GENBANK P17688) variant DGT-3 v7 (G→A, P→S; GAPS) (Brassica napus; G173A/P178S) (protein)
chain: KASEIVLQPIREISGLIKLPGSKSLSNRILLLAALSEGTTVVDNLLNSDDINYMLDALKKLGLNVERDSVNNRAVVEGCGGIFPASLDSKSDIELYLGNAATAMRSLTAAVTAAGGNASYVLDGVPRMRERPIGDLVVGLKQLGADVECTLGTNCPPVRVNANGGLPGGKVKLSGSISSQYLTALLMAAPLALGDVEIEIIDKLISVPYVEMTLKLMERFGVSAEHSDSWDRFFVKGGQKYKSPGNAYVEGDASSASYFLAGAAITGETVTVEGCGTTSLQGDVKFAEVLEKMGCKVSWTENSVTVTGPSRDAFGMRHLRAVDVNMNKMPDVAMTLAVVALFADGPTTIRDVASWRVKETERMIAICTELRKLGATVEEGSDYCVITPPAKVKPAEIDTYDDHRMAMAFSLAACADVPVTIKDPGCTRKTFPDYFQVLESITKH
notes: as for B1
On to B2, for which, in data set [1], the Km came to 2728.3 µM and the specificity constant (kcat/Km) came to 2280 M⁻¹ s⁻¹.

B3: Brassica napus (canola) EPSP synthase DGT-3 (GENBANK P17688) variant DGT-3 v8 (T→I, P→S; TIPS) (Brassica napus; P178S/T174I) (protein)
chain: KASEIVLQPIREISGLIKLPGSKSLSNRILLLAALSEGTTVVDNLLNSDDINYMLDALKKLGLNVERDSVNNRAVVEGCGGIFPASLDSKSDIELYLGNAGIAMRSLTAAVTAAGGNASYVLDGVPRMRERPIGDLVVGLKQLGADVECTLGTNCPPVRVNANGGLPGGKVKLSGSISSQYLTALLMAAPLALGDVEIEIIDKLISVPYVEMTLKLMERFGVSAEHSDSWDRFFVKGGQKYKSPGNAYVEGDASSASYFLAGAAITGETVTVEGCGTTSLQGDVKFAEVLEKMGCKVSWTENSVTVTGPSRDAFGMRHLRAVDVNMNKMPDVAMTLAVVALFADGPTTIRDVASWRVKETERMIAICTELRKLGATVEEGSDYCVITPPAKVKPAEIDTYDDHRMAMAFSLAACADVPVTIKDPGCTRKTFPDYFQVLESITKH
notes: as for B1
Turning to B3, the Km in data set [1] stood at 196.8 µM.

B4: Glycine max (soybean) EPSP synthase DGT-1 variant DGT-1 v6 (G→A) (Glycine max; G182A) (protein)
chain: MASVAAAEKPSTSPEIVLEPIKDFSGTITLPGSKSLSNRILLLAALSEGTTVVDNLLYSEDIHYMLGALRTLGLRVEDDKTTKQAIVEGCGGLFPTSKESKDEINLFLGNAATAMRPLTAAVVAAGGNASYVLDGVPRMRERPIGDLVAGLKQLGADVDCFLGTNCPPVRVNGKGGLPGGKVKLSGSVSSQYLTALLMAAPLALGDVEIEIVDKLISVPYVEMTLKLMERFGVSVEHSGNWDRFLVHGGQKYKSPGNAFVEGDASSASYLLAGAAITGGTITVNGCGTSSLQGDVKFAEVLEKMGAKVTWSENSVTVSGPPRDFSGRKVLRGIDVNMNKMPDVAMTLAVVALFANGPTAIRDVASWRVKETERMIAICTELRKLGATVEEGPDYCVITPPEKLNVTAIDTYDDHRMAMAFSLAACGDVPVTIKDPGCTRKTFPDYFEVLERLTKH
For the molecule B4, in data set [2], the Km was 608.2 µM and the specificity constant (kcat/Km) worked out at 13400 M⁻¹ s⁻¹.

B5: Glycine max (soybean) EPSP synthase DGT-1 variant DGT-1 v8 (T→I, P→S; TIPS) (Glycine max; P187S/T183I) (protein)
chain: MASVAAAEKPSTSPEIVLEPIKDFSGTITLPGSKSLSNRILLLAALSEGTTVVDNLLYSEDIHYMLGALRTLGLRVEDDKTTKQAIVEGCGGLFPTSKESKDEINLFLGNAGIAMRSLTAAVVAAGGNASYVLDGVPRMRERPIGDLVAGLKQLGADVDCFLGTNCPPVRVNGKGGLPGGKVKLSGSVSSQYLTALLMAAPLALGDVEIEIVDKLISVPYVEMTLKLMERFGVSVEHSGNWDRFLVHGGQKYKSPGNAFVEGDASSASYLLAGAAITGGTITVNGCGTSSLQGDVKFAEVLEKMGAKVTWSENSVTVSGPPRDFSGRKVLRGIDVNMNKMPDVAMTLAVVALFANGPTAIRDVASWRVKETERMIAICTELRKLGATVEEGPDYCVITPPEKLNVTAIDTYDDHRMAMAFSLAACGDVPVTIKDPGCTRKTFPDYFEVLERLTKH
As for B5, the Km in data set [2] was 151.4 µM.

B6: Glycine max (soybean) EPSP synthase DGT-1 variant DGT-1 v7 (G→A, P→S; GAPS) (Glycine max; G182A/P187S) (protein)
chain: MASVAAAEKPSTSPEIVLEPIKDFSGTITLPGSKSLSNRILLLAALSEGTTVVDNLLYSEDIHYMLGALRTLGLRVEDDKTTKQAIVEGCGGLFPTSKESKDEINLFLGNAATAMRSLTAAVVAAGGNASYVLDGVPRMRERPIGDLVAGLKQLGADVDCFLGTNCPPVRVNGKGGLPGGKVKLSGSVSSQYLTALLMAAPLALGDVEIEIVDKLISVPYVEMTLKLMERFGVSVEHSGNWDRFLVHGGQKYKSPGNAFVEGDASSASYLLAGAAITGGTITVNGCGTSSLQGDVKFAEVLEKMGAKVTWSENSVTVSGPPRDFSGRKVLRGIDVNMNKMPDVAMTLAVVALFANGPTAIRDVASWRVKETERMIAICTELRKLGATVEEGPDYCVITPPEKLNVTAIDTYDDHRMAMAFSLAACGDVPVTIKDPGCTRKTFPDYFEVLERLTKH
In the case of B6, in data set [2], the Km is 1291.2 µM and the specificity constant (kcat/Km) worked out at 6670 M⁻¹ s⁻¹.

The record behind these values is patent US9873883B2, “Glyphosate resistant plants and associated methods” (Dow AgroSciences LLC, priority 2012, dated 2018).
